Source: PMC6515931, “The Efflux Mechanism of Fraxetin-O-Glucuronides in UGT1A9-Transfected HeLa Cells: Identification of Multidrug Resistance-Associated Proteins 3 and 4 (MRP3/4) as the Important Contributors” (Frontiers in Pharmacology, 2019)

What was measured:
[1] = target: T1, UGT1A9 (Homo sapiens, UniProt O60656)
T1 sequence (O60656 26-530): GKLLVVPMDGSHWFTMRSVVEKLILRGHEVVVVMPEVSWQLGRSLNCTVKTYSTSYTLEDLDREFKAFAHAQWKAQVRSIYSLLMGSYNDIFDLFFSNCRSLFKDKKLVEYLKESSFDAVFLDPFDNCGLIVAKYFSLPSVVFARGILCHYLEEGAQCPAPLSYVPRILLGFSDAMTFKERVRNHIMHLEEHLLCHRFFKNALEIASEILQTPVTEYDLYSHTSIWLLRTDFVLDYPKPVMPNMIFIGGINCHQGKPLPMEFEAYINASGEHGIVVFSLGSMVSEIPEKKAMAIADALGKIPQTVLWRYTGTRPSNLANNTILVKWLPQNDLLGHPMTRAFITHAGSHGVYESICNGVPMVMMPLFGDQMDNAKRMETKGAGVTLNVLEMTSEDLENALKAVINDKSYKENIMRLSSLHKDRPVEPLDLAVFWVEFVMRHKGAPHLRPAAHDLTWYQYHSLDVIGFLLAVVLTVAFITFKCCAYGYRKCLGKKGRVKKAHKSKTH
Experimental: The incubation system was slightly modified on the basis of a previously published article ([Qin et al., 2018a]). […] After preincubation at 37°C for 5 min, UDPGA (3.5 mM) was added to the reaction system, and the mixture was incubated for another 30 min. These reactions were terminated by the addition of an equal volume of ice-cold acetonitrile. The mixed samples were centrifuged at 13800 × g for 10 min, and the supernatant was analyzed by ultra-high-performance liquid chromatography (UHPLC). All the experiments were conducted in triplicate.
The enzyme kinetic parameters were obtained by fitting appropriate kinetic models to the experimental data in GraphPad Prism V5 software (San Diego, CA, United States). The best model was selected based on visual inspection of the Eadie–Hofstee plots ([Qin et al., 2018b]). In brief, if the Eadie–Hofstee plot was linear, formation rates (V) of glucuronides at different substrate concentrations (C) were fitted to the standard equations (1): […]
Where Km is the Michaelis–Menten constant, and Vmax is the maximum rate of glucuronidation. The intrinsic clearance (CLint) was computed as Vmax/Km.

[2] = tested on: HeLa1A9 cells; test: Glucuronide excretion experiments in HeLa1A9 cells; assay type: cell-based, human; settings: fraxetin 5, 10 and 20 μM; HeLa1A9 cells
Experimental: The HeLa1A9 cells were pretreated and incubated with fraxetin solutions as reported previously ([Jiang et al., 2011]). Before assays, the HeLa1A9 cells were washed twice with prewarmed (37°C) Hank’s balanced salt solution (HBSS; pH = 7.4). […] At each time point (30, 60, 90, and 120 min), 200 μL of the culture supernatant from each well was collected as samples, and an equal volume of a loading media was used to replenish each well. Next, the collected samples were each mixed with 100 μL ice-cold acetonitrile. The supernatants were subjected to UHPLC analysis after centrifugation (10 min at 13800 × g).
(§1) In addition, the excretion rate of intracellular glucuronides was calculated using Equ. 2. Fraction metabolized or the fmet value was defined as the fraction of a dose metabolized based on Equ. 3. The fmet value was regarded as the more appropriate parameter to reflect the extent of drug metabolism in intact cells in the presence of a transporter–enzyme interplay.
(§2) (2) Excretion rate=VdC(excretedglucuronide)/dt
(§3) where V is the volume of the incubation medium, C is the excreted cumulative concentration of glucuronides, and t denotes the incubation time. Here, dC(excreted glucuronide)/dt describes the changes in glucuronide levels with time.

[3] = target: T2, MRP3 (Homo sapiens, UniProt O15438); test: shRNA-mediated partial silencing of MRP3 in HeLa1A9 cells, glucuronide excretion; assay type: cell-based; settings: fraxetin 10 μM
T2 construct: BCRP, MRP1, MRP3, and MRP4 were detected in both wild-type HeLa and HeLa1A9 cells; endogenous in cells
Experimental: (§4) The HeLa1A9 cells were pretreated and incubated with fraxetin solutions as reported previously ([Jiang et al., 2011]). Before assays, the HeLa1A9 cells were washed twice with prewarmed (37°C) Hank’s balanced salt solution (HBSS; pH = 7.4). After that, fraxetin (10 μM) dissolved in 2 mL of HBSS was incubated with the HeLa1A9 cells. At each time point (30, 60, 90, and 120 min), 200 μL of the culture supernatant from each well was collected as samples, and an equal volume of a loading media was used to replenish each well. Next, the collected samples were each mixed with 100 μL ice-cold acetonitrile. The supernatants were subjected to UHPLC analysis after centrifugation (10 min at 13800 × g).
(§5) In glucuronide excretion assays, biological inhibition mainly including shRNA-mediated partial silencing of BCRP and MRPs in HeLa cells was usually performed to evaluate the role of each efflux transporter ([Quan et al., 2015]; [Sun et al., 2015]; [Qin et al., 2018a]). Established shRNA_BCRP, shRNA_MRP1, shRNA_MRP3, and shRNA_MRP4 plasmids were […] transfected into HeLa1A9 cells to develop the stably shRNA-transfected cell lines, named HeLa1A9-BCRP-shRNA cells, HeLa1A9-MRP1-shRNA, HeLa1A9-MRP3-shRNA, and HeLa1A9-MRP4-shRNA cells, respectively. After transfection for 2 days, these engineered HeLa1A9 cells were subjected to fraxetin-O-glucuronide excretion experiments. The control scrambled shRNA served as a negative control.
as §1, §2
(§6) (3) fmet=excreted glucuronide+intracellular glucuronide/dosed aglycone
as §3

[4] = target: T3, MRP4 (Homo sapiens, UniProt O15439); test: shRNA-mediated partial silencing of MRP4 in HeLa1A9 cells, glucuronide excretion; assay type: cell-based; settings: fraxetin 10 μM
T3 construct: BCRP, MRP1, MRP3, and MRP4 were detected in both wild-type HeLa and HeLa1A9 cells; endogenous in cells
T3 sequence (O15439 1-1325): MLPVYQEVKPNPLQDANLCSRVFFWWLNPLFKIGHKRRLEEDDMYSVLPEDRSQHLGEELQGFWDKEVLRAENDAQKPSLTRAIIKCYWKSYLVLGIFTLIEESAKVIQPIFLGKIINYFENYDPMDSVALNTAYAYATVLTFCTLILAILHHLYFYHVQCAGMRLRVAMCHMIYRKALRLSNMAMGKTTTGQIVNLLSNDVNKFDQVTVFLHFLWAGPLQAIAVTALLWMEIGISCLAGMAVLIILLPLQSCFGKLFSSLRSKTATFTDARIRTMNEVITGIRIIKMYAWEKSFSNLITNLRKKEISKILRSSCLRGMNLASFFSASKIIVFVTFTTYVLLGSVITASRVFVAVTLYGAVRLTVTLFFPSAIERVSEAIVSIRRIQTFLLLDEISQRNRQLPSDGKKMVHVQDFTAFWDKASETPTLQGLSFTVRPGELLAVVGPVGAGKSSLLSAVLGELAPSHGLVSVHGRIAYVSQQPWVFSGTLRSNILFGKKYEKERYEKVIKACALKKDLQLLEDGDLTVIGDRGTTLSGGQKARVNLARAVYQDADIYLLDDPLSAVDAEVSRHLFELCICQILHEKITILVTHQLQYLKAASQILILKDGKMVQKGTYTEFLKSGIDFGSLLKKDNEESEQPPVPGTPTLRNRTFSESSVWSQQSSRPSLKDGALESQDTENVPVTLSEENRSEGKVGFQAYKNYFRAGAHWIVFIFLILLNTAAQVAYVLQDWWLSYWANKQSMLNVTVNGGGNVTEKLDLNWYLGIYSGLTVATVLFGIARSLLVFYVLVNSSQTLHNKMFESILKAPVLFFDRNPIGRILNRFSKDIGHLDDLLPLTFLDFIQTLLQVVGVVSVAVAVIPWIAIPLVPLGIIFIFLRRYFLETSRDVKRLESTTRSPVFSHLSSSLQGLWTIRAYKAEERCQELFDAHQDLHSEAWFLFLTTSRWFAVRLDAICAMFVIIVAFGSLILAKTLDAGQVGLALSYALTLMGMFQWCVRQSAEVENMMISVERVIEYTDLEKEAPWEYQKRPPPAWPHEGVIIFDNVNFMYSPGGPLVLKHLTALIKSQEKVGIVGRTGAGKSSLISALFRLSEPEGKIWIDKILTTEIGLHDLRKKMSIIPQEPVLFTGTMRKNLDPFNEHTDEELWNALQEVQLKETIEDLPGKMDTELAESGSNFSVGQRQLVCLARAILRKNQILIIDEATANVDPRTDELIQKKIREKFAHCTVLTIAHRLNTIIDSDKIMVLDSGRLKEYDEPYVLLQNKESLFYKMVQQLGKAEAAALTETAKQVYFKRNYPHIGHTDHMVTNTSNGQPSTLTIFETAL
Experimental: as §4, §5, §1, §2, §6, §3

[5] = substrate: CC(C)c1cccc(C(C)C)c1O; test: cells, lysate or membranes named; settings: other: metabolite propofol-G, pH 7.4, 37.0 °C
[6] = substrate: COc1cc2ccc(=O)oc2c(O)c1O; test: cells, lysate or membranes named; settings: UGT1A9 enzyme, pH 7.4, 37.0 °C
[7] = substrate: COc1cc2ccc(=O)oc2c(O)c1O; test: Glucuronidation kinetics by HeLa1A9 cell lysate; assay type: in vitro ADME, human
Experimental: HeLa1A9 cells were grown in 10 cm dishes for 3 to 4 days and then were washed and harvested in 50 mM Tris buffer (pH = 7.4). The collected cells were sonicated using a tight-fitting Dounce homogenizer in an ice-cold water bath (4°C). […] Next, the cell lysates were centrifuged at 4°C (13800 × g for 10 min). The supernatant to be used in the UGT glucuronidation activity assay was collected, and its protein concentration was measured by the bicinchoninic acid assay (BCA; Beyotime, Shanghai, China).

[8] = other: metabolite G1, pH 7.4, 37.0 °C
[9] = other: metabolite G2, pH 7.4, 37.0 °C

T2 sequence (O15438 whole entry): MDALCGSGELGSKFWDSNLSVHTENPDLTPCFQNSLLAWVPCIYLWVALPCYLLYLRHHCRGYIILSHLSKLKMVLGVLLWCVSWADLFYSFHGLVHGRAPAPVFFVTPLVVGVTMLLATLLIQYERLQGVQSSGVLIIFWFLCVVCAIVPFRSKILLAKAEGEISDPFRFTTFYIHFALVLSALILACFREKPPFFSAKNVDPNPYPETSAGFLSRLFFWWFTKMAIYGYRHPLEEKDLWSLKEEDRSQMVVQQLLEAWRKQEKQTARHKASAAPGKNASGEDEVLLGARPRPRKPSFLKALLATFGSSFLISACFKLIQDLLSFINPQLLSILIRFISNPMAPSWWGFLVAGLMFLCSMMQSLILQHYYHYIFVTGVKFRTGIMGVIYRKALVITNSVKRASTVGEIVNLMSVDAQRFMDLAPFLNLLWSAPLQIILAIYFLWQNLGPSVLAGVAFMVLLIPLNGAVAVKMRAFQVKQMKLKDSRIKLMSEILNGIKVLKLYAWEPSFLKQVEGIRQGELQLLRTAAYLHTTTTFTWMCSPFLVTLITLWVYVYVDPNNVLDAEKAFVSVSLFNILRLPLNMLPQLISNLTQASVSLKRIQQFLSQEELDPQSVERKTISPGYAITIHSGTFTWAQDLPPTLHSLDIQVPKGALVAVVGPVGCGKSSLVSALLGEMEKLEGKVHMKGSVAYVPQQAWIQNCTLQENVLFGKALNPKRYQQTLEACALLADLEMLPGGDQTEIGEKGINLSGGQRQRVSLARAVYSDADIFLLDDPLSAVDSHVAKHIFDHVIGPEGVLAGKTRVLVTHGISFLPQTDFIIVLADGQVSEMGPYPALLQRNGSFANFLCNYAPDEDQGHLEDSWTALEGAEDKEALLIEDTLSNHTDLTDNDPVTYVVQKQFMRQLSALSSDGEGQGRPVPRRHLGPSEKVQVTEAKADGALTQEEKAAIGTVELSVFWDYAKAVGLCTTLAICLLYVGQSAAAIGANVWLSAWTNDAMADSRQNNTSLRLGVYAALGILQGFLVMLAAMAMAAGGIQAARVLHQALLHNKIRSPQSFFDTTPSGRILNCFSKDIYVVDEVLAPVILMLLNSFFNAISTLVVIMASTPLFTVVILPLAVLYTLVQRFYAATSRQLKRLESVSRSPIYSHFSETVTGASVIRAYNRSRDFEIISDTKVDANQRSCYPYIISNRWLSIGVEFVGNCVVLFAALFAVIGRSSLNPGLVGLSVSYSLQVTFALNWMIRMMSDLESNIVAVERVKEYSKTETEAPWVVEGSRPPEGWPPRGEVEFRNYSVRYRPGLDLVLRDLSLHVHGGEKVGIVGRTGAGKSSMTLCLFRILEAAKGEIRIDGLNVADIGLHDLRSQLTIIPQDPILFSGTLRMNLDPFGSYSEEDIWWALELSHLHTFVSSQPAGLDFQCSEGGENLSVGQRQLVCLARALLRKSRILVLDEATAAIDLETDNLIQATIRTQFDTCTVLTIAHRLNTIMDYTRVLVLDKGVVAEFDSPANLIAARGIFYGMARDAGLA

**Q.** What does the source list for `COc1cc2ccc(=O)oc2c(O[C@@H]2O[C@H](C(=O)O)[C@@H](O)[C@H](O)[C@H]2O)c1O` [G1, fraxetin-8-O-glucuronide]?
**A.** Km [1]: 8 to 16 µM; excretion with elevation of the fraxetin concentration [2]: markedly increased; decrease in fraction metabolized (fmet; overall cellular glucuronidation) ([3]; MRP3 knockdown): 24.1%; reduction in excretion rate ([3]; MRP3 knockdown): 29.1%; reduction in excreted glucuronide ([3]; MRP3 knockdown, HeLa1A9 cells): 19.8–39.4%; elevation of intracellular glucuronide level ([3]; MRP3 silencing): 30.2%; decrease in fraction metabolized (fmet) [4]: 22.7%; elevation of intracellular glucuronide [4]: 42.0%; reduction in excretion rate [4]: 34.8%; decreased excretion of glucuronide ([4]; HeLa1A9 cells): 33.6–51.1%

B1: UGT1A9 (Homo sapiens) (protein)
chain: GKLLVVPMDGSHWFTMRSVVEKLILRGHEVVVVMPEVSWQLGRSLNCTVKTYSTSYTLEDLDREFKAFAHAQWKAQVRSIYSLLMGSYNDIFDLFFSNCRSLFKDKKLVEYLKESSFDAVFLDPFDNCGLIVAKYFSLPSVVFARGILCHYLEEGAQCPAPLSYVPRILLGFSDAMTFKERVRNHIMHLEEHLLCHRFFKNALEIASEILQTPVTEYDLYSHTSIWLLRTDFVLDYPKPVMPNMIFIGGINCHQGKPLPMEFEAYINASGEHGIVVFSLGSMVSEIPEKKAMAIADALGKIPQTVLWRYTGTRPSNLANNTILVKWLPQNDLLGHPMTRAFITHAGSHGVYESICNGVPMVMMPLFGDQMDNAKRMETKGAGVTLNVLEMTSEDLENALKAVINDKSYKENIMRLSSLHKDRPVEPLDLAVFWVEFVMRHKGAPHLRPAAHDLTWYQYHSLDVIGFLLAVVLTVAFITFKCCAYGYRKCLGKKGRVKKAHKSKTH
**Q.** With B1 as the molecule, how does the Km ([5]; UGT1A9 enzyme) read?
**A.** 53 ± 6 µM

**Q.** And the Km ([6]; other: metabolite G1)?
**A.** 16 ± 2 µM

**Q.** And the Vmax ([6]; other: metabolite G1)?
**A.** 0.00292 µmol/min/mg

**Q.** And the Vmax/Km ([6]; other: metabolite G1)?
**A.** 180 µL/min/mg

**Q.** What about the Km ([6]; other: metabolite G2) of the same molecule?
**A.** 10 ± 1 µM

**Q.** And the Vmax ([6]; other: metabolite G2)?
**A.** 0.00144 µmol/min/mg

**Q.** And the Vmax/Km ([6]; other: metabolite G2)?
**A.** 150 µL/min/mg

B2: HeLa1A9 cell lysate (Homo sapiens) (protein)
chain: GKLLVVPMDGSHWFTMRSVVEKLILRGHEVVVVMPEVSWQLGRSLNCTVKTYSTSYTLEDLDREFKAFAHAQWKAQVRSIYSLLMGSYNDIFDLFFSNCRSLFKDKKLVEYLKESSFDAVFLDPFDNCGLIVAKYFSLPSVVFARGILCHYLEEGAQCPAPLSYVPRILLGFSDAMTFKERVRNHIMHLEEHLLCHRFFKNALEIASEILQTPVTEYDLYSHTSIWLLRTDFVLDYPKPVMPNMIFIGGINCHQGKPLPMEFEAYINASGEHGIVVFSLGSMVSEIPEKKAMAIADALGKIPQTVLWRYTGTRPSNLANNTILVKWLPQNDLLGHPMTRAFITHAGSHGVYESICNGVPMVMMPLFGDQMDNAKRMETKGAGVTLNVLEMTSEDLENALKAVINDKSYKENIMRLSSLHKDRPVEPLDLAVFWVEFVMRHKGAPHLRPAAHDLTWYQYHSLDVIGFLLAVVLTVAFITFKCCAYGYRKCLGKKGRVKKAHKSKTH
notes: expressed in transfected cells; host or cells: HeLa cells stably transfected with the UGT1A9 gene (HeLa1A9); lysate supernatant
**Q.** With B2 as the molecule, how does the Km ([5]; HeLa1A9 cell lysate) read?
**A.** 59 ± 13 µM

**Q.** What about the Km [7, 8] of the same molecule?
**A.** 13 ± 2 µM

**Q.** What about the Vmax [7, 8] of the same molecule?
**A.** 0.00011 ± 5e-06 µmol/min/mg

**Q.** And the Vmax/Km [7, 8]?
**A.** 9 ± 1 µL/min/mg

**Q.** And the Km [7, 9]?
**A.** 8 ± 1 µM

**Q.** What about the Vmax [7, 9] of the same molecule?
**A.** 4.2e-05 ± 2e-06 µmol/min/mg

**Q.** What about the Vmax/Km [7, 9] of the same molecule?
**A.** 5 ± 1 µL/min/mg
